# Patent publication US20050181476
# B1: IRAK-4 (protein)
# chain: MNKPITPSTYVRCLNVGLIRKLSDFIDPQEGWKKLAVAIKKPSGDDRYNQFHIRRFEALLQTGKSPTSELLFDWGTTNCTVGDLVDLLIQNEFFAPASLLLPDAVPKTANTLPSKEAITVQQKQMPFCDKDRTLMTPVQNLEQSYMPPDSSSPENKSLEVSDTRFHSFSFYELKNVTNNFDERPISVGGNKMGEGGFGVVYKGYVNNTTVAVKKLAAMVDITTEELKQQFDQEIKVMAKCQHENLVELLGFSSDGDDLCLVYVYMPNGSLLDRLSCLDGTPPLSWHMRCKIAQGAANGINFLHENHHIHRDIKSANILLDEAFTAKISDFGLARASEKFAQTVMTSRIVGTTAYMAPEALRGEITPKSDIYSFGVVLLEIITGLPAVDEHREPQLLLDIKEEIEDEEKTIEDYIDKKMNDADSTSVEAMYSVASQCLHEKKNKRPDIKKVQQLLQEMTAS
# Chain of E-MyD88S (chain, as listed by the source): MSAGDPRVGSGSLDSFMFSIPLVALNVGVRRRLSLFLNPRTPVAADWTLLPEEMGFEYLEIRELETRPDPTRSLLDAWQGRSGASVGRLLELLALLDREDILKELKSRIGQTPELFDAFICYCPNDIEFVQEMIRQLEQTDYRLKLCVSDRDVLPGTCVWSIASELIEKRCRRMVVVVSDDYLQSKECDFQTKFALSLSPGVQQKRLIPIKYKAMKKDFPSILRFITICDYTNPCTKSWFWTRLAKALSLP
protein,measurement,setting,value
B1,IRAK-4-induced IRAK-1KD phosphorylation (slower migrating species in SDS-PAGE; in vitro kinase assay),MyD88,"Addition of MyD88, however, significantly enhanced IRAK-4-induced IRAK-1KD phosphorylation"
same,in vitro phosphorylation of IRAK-1KD induced by IRAK-4 co-expression,E-MyD88S,in vitro phosphorylation of IRAK-1KD induced by IRAK-4 co-expression was completely inhibited when MyD88S was co-expressed
